# Molecular target: T1, human PSMA (Prostate Specific Membrane Antigen, Glutamate Carboxypeptidase II) (human, UniProt Q04609 1-750)
# T1 construct: whole, on cells; the cell line is named under assay; also called FOLH1
# Assay: flow cytometry on LNCaP cells
# Method: Briefly, 50,000 target cells were stained with a dilution series of purified UniAbs™ for 30 minutes at 4° C. Following incubation, the cells were washed twice with flow cytometry buffer (1×PBS, 1% BSA, 0.1% NaN₃) and stained with goat F(ab′)₂ anti-human IgG conjugated to R-phycoerythrin (PE) (Southern Biotech, cat. #2042-09) to detect cell-bound antibodies. After a 20-minute incubation at 4° C., the cells were washed twice with flow cytometry buffer and the mean fluorescence intensity (MFI) was measured by flow cytometry. The MFI of cells stained with secondary antibody alone were used for determination of background signal and binding of each antibody was converted to fold over background. Binding to cynomolgus PSMA positive cells was determined using the same protocol with the following modifications: the target cells were from Freestyle 293-F cells (ThermoFisher R79007) transiently transfected to express the extracellular domain of cynomolgus PSMA. In some experiments EC50 values were calculated using GraphPad Prism 7.
# Column 1 indicates the clone ID of the HCAb. Column 2 indicates binding to LNCaP cells measured as fold over the background MFI signal.
# T1 sequence (Q04609 whole entry): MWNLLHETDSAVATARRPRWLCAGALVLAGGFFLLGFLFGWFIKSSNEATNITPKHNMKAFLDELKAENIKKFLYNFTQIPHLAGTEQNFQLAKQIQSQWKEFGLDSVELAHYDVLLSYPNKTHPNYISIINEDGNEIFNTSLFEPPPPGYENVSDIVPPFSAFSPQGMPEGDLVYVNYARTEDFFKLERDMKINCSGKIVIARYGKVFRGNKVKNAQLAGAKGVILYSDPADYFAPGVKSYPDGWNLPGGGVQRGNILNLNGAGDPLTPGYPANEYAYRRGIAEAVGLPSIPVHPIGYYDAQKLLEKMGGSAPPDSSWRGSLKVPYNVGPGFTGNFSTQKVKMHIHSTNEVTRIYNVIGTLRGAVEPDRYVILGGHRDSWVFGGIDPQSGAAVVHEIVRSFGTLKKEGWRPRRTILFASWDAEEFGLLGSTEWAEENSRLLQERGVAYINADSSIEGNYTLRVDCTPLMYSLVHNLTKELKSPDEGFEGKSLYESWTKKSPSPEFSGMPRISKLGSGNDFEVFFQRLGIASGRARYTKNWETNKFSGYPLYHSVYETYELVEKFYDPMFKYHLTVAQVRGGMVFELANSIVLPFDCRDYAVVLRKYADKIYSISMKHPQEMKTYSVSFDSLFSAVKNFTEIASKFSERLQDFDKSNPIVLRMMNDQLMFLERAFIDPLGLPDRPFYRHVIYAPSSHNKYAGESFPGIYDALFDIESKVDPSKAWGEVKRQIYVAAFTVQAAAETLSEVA
row,fold over the background MFI signal [fold over background MFI],Binder
1,216,"anti-PSMA heavy-chain antibody clone ID 346172 (antibody, V domains shown, heavy chain-only antibody (UniAb/HCAb)) VH: QLQLQESGPGLVKPSETLSLTCTVSGGSISSSSYYWGWIRQPPGKGLEWIGSIDYSGYTYYNPSLKSRVTISVDTSKNQFSLKLSSVTAADTAVYNCARHKAATADFDYRGQGTLVTVSS"
2,243,"anti-PSMA heavy-chain antibody clone ID 346165 (antibody, V domains shown, heavy chain-only antibody (UniAb/HCAb)) VH: QLQLQESGPGLVKPSETLSLTCTVSGGSISSSSYYWGWIRQPPGKGLEWIGSVDYSGYTYYNPSLQSRVTISVDTSKNQFSLKLSSVTAADTAVYNCARHKAATADFDYRGQGTLVTVSS"
3,25,"anti-PSMA heavy-chain antibody clone ID 326109 (antibody, V domains shown, heavy chain-only antibody (UniAb/HCAb)) VH: QLQLQESGPGLVKPSETLSLTCTVSGGSISSNSYYWGWIRQSPGKGLEWLGSIYDSGSTHYNPSLKSRVIISGDTSKNQFSLKLSSVTAADTAVYYCARHKAATADFDYRGQGTLVTVSS"
4,282,"anti-PSMA heavy-chain antibody clone ID 325920 (antibody, V domains shown, heavy chain-only antibody (UniAb/HCAb)) VH: QLQLQESGPGLVKPSETLSLTCTVSGGSISSSSYYWGWIRQPPGKGLEWIGSIDYSGYTYYNPSLQSRVTISVDTSKNQFSLKLSSVTAADTAVYNCARHKAATADFDYRGQGTLVTVSS"
5,264,"anti-PSMA heavy-chain antibody clone ID 346181 (antibody, V domains shown, heavy chain-only antibody (UniAb/HCAb)) VH: QLQLQESGPGLVKPSETLSLTCTVSGGSISSSNYFWGWIRQSPGKGLEWIGSIDYSGYTYYNPSLKSRVTISVDTSKNQFSLKLSSVTAADTAVYNCARHKAATADFDYRGQGTLVTVSS"
6,193,"anti-PSMA heavy-chain antibody clone ID 325748 (antibody, V domains shown, heavy chain-only antibody (UniAb/HCAb)) VH: QVQLVESGGGVVQPGRSLRLSCAASGFSFSSYGMHWVRQAPGKGLEGVAVIWYDGSNRYYADSVKGRFTISRDNSKNTLYLQMNSLRAEDTAVYYCAREPRIGYYYESSGYYSLDYRGQGTLVTVSS"
7,200,"anti-PSMA heavy-chain antibody clone ID 325742 (antibody, V domains shown, heavy chain-only antibody (UniAb/HCAb)) VH: QVQLVESGGGVVQPGRSLRLSCAASGFSFSSYGMHWVRQAPGKGLEWVAVIWYDGSNKYYADSVKGRFTISRDYSKNTLYLQMNSLRAEDTAVYYCAREPRIGYYYESSGYDSLDYRGQGTLVTVSS"
8,68,"anti-PSMA heavy-chain antibody clone ID 345463 (antibody, V domains shown, heavy chain-only antibody (UniAb/HCAb)) VH: QVQLVESGGGVVQPGRSLRLSCAASGFIFRSYGMHWVRQAPGKGPEWVAVIWYDGSNKYYADSVKGRFTISRDNSKNTLYLQMNSLRAEDTAVYYCAREPRIGYYYESSGYYSLDYRGQGTLVTVSS"
9,71,"anti-PSMA heavy-chain antibody clone ID 345485 (antibody, V domains shown, heavy chain-only antibody (UniAb/HCAb)) VH: QVQLVESGGGVVQPGRSLRLSCAASGFSFRSYGMHWVRQAPGKGLEWVAVIWYDGSNKYYADSVKGRFTISRDNSKNTMYLQMNSLRAEDTAVYYCAREPRIGYYYESSGYYSLDYRGQGTLVTVSS"
10,112,"anti-PSMA heavy-chain antibody clone ID 345497 (antibody, V domains shown, heavy chain-only antibody (UniAb/HCAb); also called HCAb 345497) VH: QVQLVESGGGVVQPGRSLRLSCAASGFSFSRYGMHWVRQAPGKGLEGVAVIWYDGSNRYYADSVKGRFTISRDNSKNTLYLQMNSLRAEDTAVYYCAREPRIGYYYESSGYYSLDYRGQGTLVTVSS"
11,117,"anti-PSMA heavy-chain antibody clone ID 326028 (antibody, V domains shown, heavy chain-only antibody (UniAb/HCAb)) VH: QVQLVESGGGVVQPGRSLRLSCAASGFSFRSYGMHWVRQAPGKGLEWVAVISYDGSNKYYADSVKGRFTISRDYSKNTLYLQMNSLRAEDTAVYYCAREPRIGYYYDSSGYDSLDYRGQGTLVTVSS"
12,13,"anti-PSMA heavy-chain antibody clone ID 345438 (antibody, V domains shown, heavy chain-only antibody (UniAb/HCAb)) VH: QVQLVESGGGVVQPGRSLRLSCAASGFSFSSYGMHWVRQAPGKGPEWVAVIWYDGSNKYYADSVKGRFTISRDNSKNTLYLQMNSLRAEDTAVYYCAREPRIGYYYESSGYYSLDYRGQGTLVTVSS"
13,14,"anti-PSMA heavy-chain antibody clone ID 345447 (antibody, V domains shown, heavy chain-only antibody (UniAb/HCAb)) VH: QVQLVESGGGVVQPGRSLRLSCAASGFSFSSYGMHWVRQAPGKGLEGVAVISYDGSNRYYADSVKGRFTISRDNSKNTLYLQMNSLRAEDTAVYYCAREPRIGYYYESSGYYSLDYRGQGTLVTVSS"
14,169,"anti-PSMA heavy-chain antibody clone ID 325940 (antibody, V domains shown, heavy chain-only antibody (UniAb/HCAb)) VH: QVQLVESGGGVVQPGRSLRLSCAASGFIFRSYGMHWVRQAPGKGPEWVAVIWYDGSNKYYADSVKGRFTISRDNSKNTLYLQMNSLRAEDTAVYYCAREPRIGYYYESSGYYSLDYRGQGTLVTVSS"
15,102,"anti-PSMA heavy-chain antibody clone ID 345461 (antibody, V domains shown, heavy chain-only antibody (UniAb/HCAb)) VH: QVQLVESGGGVVQPGRSLRLSCAASGFSFTSYGMHWVRQAPGKGLEGVAVIWYDGSNRYYADSVKGRFTISRDNSKNTLYLQMNSLRAEDTAVYYCAREPRIGYYYESSGYYSLDYRGQGTLVTVSS"
16,210,"anti-PSMA heavy-chain antibody clone ID 325867 (antibody, V domains shown, heavy chain-only antibody (UniAb/HCAb)) VH: QVQLVESGGGVVQPGRSLRLSCAASGFSFRSYGMHWVRQAPGKGLEWVAVIWYDGSNKYYADSVKGRFTISRDYSKNTLYLQMNSLRAEDTAVYYCAREPRIGYYYESSGYDSLDYRGQGTLVTVSS"
17,125,"anti-PSMA heavy-chain antibody clone ID 326084 (antibody, V domains shown, heavy chain-only antibody (UniAb/HCAb)) VH: QVQLVESGGGVVQPGRSLRLSCAASGFSFSSYGMHWVRQAPGKGLEGVAVIWYDGSNRYYADSVKGRFTISRDNSKNTLYLQMNSLRAEDTAVYYCAREPRIGYYYDSSGYYSLDYRGQGTLVTVSS"
18,101,"anti-PSMA heavy-chain antibody clone ID 345493 (antibody, V domains shown, heavy chain-only antibody (UniAb/HCAb)) VH: QVQLVESGGGVVQPGRSLRLSCAASGFSFSRYGMHWVRQAPGKGLEWVAVIWYDGSNRYYADSVKGRFTISRDNSKNTLYLQMNSLRAEDTAVYYCAREPRIGYYYESSGYYSLDYRGQGTLVTVSS"
19,109,"anti-PSMA heavy-chain antibody clone ID 326029 (antibody, V domains shown, heavy chain-only antibody (UniAb/HCAb)) VH: QVQLVESGGGVVQPGRSLRLSCAASGFSFSRYGMHWVRQAPGKGLEWVAVISYDGSNKYYADSVKGRFTISRDNSKNTLYLQMNSLRAEDTAVYYCAREPRVGYYYETSGYYSLDYRGQGTLVTVSS"
20,129,"anti-PSMA heavy-chain antibody clone ID 326087 (antibody, V domains shown, heavy chain-only antibody (UniAb/HCAb)) VH: QVQLVESGGGVVQPGRSLRLSCAASGFIFRSYGMHWVRQAPGKGPEWVAVIWYDGSNKYYADSVKGRFTISRDNSKNTLYLQMNSLRAEDTAVYYCAREPRIGYYYDSSGYDSLDYRGQGTLVTVSS"
21,47,"anti-PSMA heavy-chain antibody clone ID 345480 (antibody, V domains shown, heavy chain-only antibody (UniAb/HCAb)) VH: QVQLVESGGGVVQPGRSLRLSCAASGFSFSSYGMHWVRQAPGKGLEWVAVIWYDGSNRYYADSVKGRFTISRDNSKNTLYLQMNSLRAEDTAVYYCAREPRIGYYYESSGYYSLDYRGQGTLVTVSS"
22,80,"anti-PSMA heavy-chain antibody clone ID 345482 (antibody, V domains shown, heavy chain-only antibody (UniAb/HCAb)) VH: QVQLVESGGGVVQPGRSLRLSCAASGFSFSSYGMHWVRQAPGKGLEGVAVIWYDGSNRYYADSVKGRFTISRDSSKNTLYLQMNSLRAEDTAVYYCAREPRIGYYYESSGYYSLDYRGQGTLVTVSS"
23,163,"anti-PSMA heavy-chain antibody clone ID 325836 (antibody, V domains shown, heavy chain-only antibody (UniAb/HCAb)) VH: QVQLVESGGGVVQPGRSLRLSCAASGFSFRSYGMHWVRQAPGKGLEWVAVIWYDGSNKYYADSVKGRFTISRDYSKNTLYLQMNSLRAEDTAVYYCAREPRIGYYYDSSGYDSLDYRGQGTLVTVSS"
24,22,"anti-PSMA heavy-chain antibody clone ID 345421 (antibody, V domains shown, heavy chain-only antibody (UniAb/HCAb)) VH: QVQLVESVGGVVQPGRSLRLSCAASGFSFSSYGMHWVRQAPGKGLEGVAVIWYDGSNRYYADSVKGRFTISRDNSKNTLYLQMNSLRAEDTAVYYCAREPRIGYYYESSGYYSLDYRGQGTLVTVSS"
25,138,"anti-PSMA heavy-chain antibody clone ID 326027 (antibody, V domains shown, heavy chain-only antibody (UniAb/HCAb)) VH: QVQLVESGGGVVQPGRSLRLSCAASGFSFRSYGMHWVRQAPGKGLEWVAVIWYDGSNKYYADSVKGRFTISRDNSKNTLYLQMNSLRAEDTAVYYCAREPRIGYYYDSSGYDSLDYRGQGTLVTVSS"
26,87,"anti-PSMA heavy-chain antibody clone ID 345436 (antibody, V domains shown, heavy chain-only antibody (UniAb/HCAb)) VH: QVQLVESGGGVVQPGRSLRLSCAASGFSFSRYGMHWVRQAPGKGLEGVAVIWYDGSNKYYADSVKGRFTISRDNSKNTLYLQMNSLRAEDTAVYYCAREPRIGYYYESSGYYSLDYRGQGTLVTVSS"
27,80,"anti-PSMA heavy-chain antibody clone ID 345490 (antibody, V domains shown, heavy chain-only antibody (UniAb/HCAb)) VH: QVQLVESGGGLVKPGGSLRLSCAASGFSFSSYGMHWVRQAPGKGLEGVAVIWYDGSNRYYADSVKGRFTISRDNSKNTLYLQMNSLRAEDTAVYYCAREPRIGYYYESSGYYSLDYRGQGTLVTVSS"
28,23,"anti-PSMA heavy-chain antibody clone ID 345444 (antibody, V domains shown, heavy chain-only antibody (UniAb/HCAb)) VH: QVQLVESGGGVVQPGRSLRLSCAASGFTFSSYGMHWVRQAPGKGLEGVAVIWYDGSNRYYADSVKGRFTISRDNSKNTLYLQMNSLRAEDTAVYYCAREPRIGYYYESSGYYSLDYRGQGTLVTVSS"
29,84,"anti-PSMA heavy-chain antibody clone ID 345443 (antibody, V domains shown, heavy chain-only antibody (UniAb/HCAb)) VH: QVQLVESGGGVVQPGRSLRLSCAASGFSFSSYGMHWVRQAPGKGLEGVAVIWYDGSNRYYADSVKGRFTISRDNSKNTLFLQMNSLRAEDTAVYYCAREPRIGYYYESSGYYSLDYRGQGTLVTVSS"
30,38,"anti-PSMA heavy-chain antibody clone ID 326116 (antibody, V domains shown, heavy chain-only antibody (UniAb/HCAb)) VH: QVQLVESGGGVVQPGRSLRLSCAASGFSFSRYGMHWVRQAPGKGLEGVAVISYDGSNKYYADSVKGRFTISRDYSKNTLYLQMNSLRAEDTAVYYCAREPRIGYYYDSSGYDSLDYRGQGTLVTVSS"

# Source: US20250066476A1 (TENEOONE, published 2025)
